From publication PMC2807882, “Conservation of DNA-binding specificity and oligomerisation properties within the p53 family”

T1: ΔNp73β (Homo sapiens, UniProt O15350-9 1-450)
T1 sequence: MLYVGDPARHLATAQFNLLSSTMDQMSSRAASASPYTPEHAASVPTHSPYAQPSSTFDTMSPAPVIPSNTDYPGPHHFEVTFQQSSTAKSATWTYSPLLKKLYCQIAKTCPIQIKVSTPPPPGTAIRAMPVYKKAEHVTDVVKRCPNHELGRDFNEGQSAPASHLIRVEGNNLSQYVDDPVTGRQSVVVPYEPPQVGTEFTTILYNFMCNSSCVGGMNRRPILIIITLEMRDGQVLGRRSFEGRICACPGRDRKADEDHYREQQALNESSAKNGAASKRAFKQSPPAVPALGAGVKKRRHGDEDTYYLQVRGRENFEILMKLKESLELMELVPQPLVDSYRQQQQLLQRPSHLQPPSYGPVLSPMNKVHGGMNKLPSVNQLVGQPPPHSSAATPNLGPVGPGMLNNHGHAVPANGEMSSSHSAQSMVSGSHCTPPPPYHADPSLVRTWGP

T2: ΔNp63α (Homo sapiens, UniProt Q9H3D4-2 1-586)
T2 sequence: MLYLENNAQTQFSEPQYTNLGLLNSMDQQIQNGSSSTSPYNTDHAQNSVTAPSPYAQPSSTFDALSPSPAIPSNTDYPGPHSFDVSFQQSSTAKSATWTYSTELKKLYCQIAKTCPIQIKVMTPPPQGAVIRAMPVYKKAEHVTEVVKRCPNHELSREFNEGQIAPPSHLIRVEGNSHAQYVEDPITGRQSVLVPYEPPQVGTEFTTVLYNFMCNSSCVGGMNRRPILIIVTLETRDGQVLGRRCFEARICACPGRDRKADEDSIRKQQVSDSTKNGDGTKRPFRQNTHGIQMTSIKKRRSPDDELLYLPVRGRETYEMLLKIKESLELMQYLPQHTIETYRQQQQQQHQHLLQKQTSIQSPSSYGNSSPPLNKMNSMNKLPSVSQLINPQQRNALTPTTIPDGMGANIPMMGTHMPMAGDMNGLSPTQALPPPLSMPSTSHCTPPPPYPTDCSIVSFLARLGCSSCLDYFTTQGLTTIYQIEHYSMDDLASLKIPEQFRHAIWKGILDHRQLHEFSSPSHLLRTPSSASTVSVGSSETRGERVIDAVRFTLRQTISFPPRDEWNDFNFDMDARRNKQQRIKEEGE

T3: ΔNp63β (Homo sapiens, UniProt Q9H3D4-4 1-461)
T3 sequence: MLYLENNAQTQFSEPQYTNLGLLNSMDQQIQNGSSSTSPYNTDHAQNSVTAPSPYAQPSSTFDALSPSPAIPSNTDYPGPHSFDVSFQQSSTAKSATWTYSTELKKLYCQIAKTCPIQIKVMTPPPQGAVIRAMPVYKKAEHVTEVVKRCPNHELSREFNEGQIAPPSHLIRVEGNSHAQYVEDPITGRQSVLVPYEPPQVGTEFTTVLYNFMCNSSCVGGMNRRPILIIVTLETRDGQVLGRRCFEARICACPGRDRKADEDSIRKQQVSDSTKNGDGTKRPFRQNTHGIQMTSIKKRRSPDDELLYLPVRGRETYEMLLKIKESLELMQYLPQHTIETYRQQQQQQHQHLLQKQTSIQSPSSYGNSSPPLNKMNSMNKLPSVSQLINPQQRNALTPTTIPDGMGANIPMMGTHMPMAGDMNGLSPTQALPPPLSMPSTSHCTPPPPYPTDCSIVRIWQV

T4: ΔNp63γ (Homo sapiens, UniProt Q9H3D4-6 1-393)
T4 sequence: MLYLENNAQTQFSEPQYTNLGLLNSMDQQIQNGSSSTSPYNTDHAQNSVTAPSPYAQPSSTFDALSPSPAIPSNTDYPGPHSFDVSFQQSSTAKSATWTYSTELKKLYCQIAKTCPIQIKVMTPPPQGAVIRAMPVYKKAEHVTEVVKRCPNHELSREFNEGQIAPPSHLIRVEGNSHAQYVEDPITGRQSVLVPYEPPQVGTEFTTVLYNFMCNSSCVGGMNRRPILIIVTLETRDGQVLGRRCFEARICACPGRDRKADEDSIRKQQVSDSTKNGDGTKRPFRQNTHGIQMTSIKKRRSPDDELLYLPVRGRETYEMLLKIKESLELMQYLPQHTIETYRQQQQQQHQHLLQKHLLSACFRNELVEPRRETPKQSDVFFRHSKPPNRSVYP

B1: Ref competitor (dsDNA)
DNA 1: CGCGGACATGTCCGGACATGTCCCGC
DNA 2: GCGGGACATGTCCGGACATGTCCGCG
B2: Ref_Alexa488 (dsDNA)
DNA 1: GGACATGTCCGGACATGTCC
DNA 2: GGACATGTCCGGACATGTCC

How the values were obtained:
[1] = molecular target: T1, ΔNp73β; experiment: fluorescence anisotropy competition titration; 25 mM sodium phosphate (purification buffer pH 7.2), 225 mM NaCl, 10% v/v glycerol, 5 mM DTT, 0.2 mg/mL BSA, 22 C; settings: protein: recombinant; tags: N-terminal 6xHis-lipoyl-TEV tag, cleaved; chain copies: 4
[2] = molecular target: T2, ΔNp63α; experiment: as above; settings: protein: recombinant; tags: N-terminal 6xHis-lipoyl-TEV tag, cleaved; chain copies: 4
[3] = molecular target: T1, ΔNp73β; experiment: fluorescence anisotropy, direct; 25 mM NaPi, 225 mM NaCl, 10% v/v glycerol, 5 mM DTT, 0.2 mg/mL BSA, 22°C; 20 nM labelled DNA; pH not stated for the binding assay; settings: protein: recombinant; tags: N-terminal 6xHis-lipoyl-TEV tag, cleaved; chain copies: 4; label: 5'-Alexa488
[4] = molecular target: T3, ΔNp63β; experiment: as above; settings: protein: recombinant; tags: N-terminal 6xHis-lipoyl-TEV tag, cleaved; chain copies: 4; label: 5'-Alexa488
[5] = molecular target: T2, ΔNp63α; experiment: as above; settings: protein: recombinant; tags: N-terminal 6xHis-lipoyl-TEV tag, cleaved; chain copies: 4; label: 5'-Alexa488
[6] = molecular target: Xlp53 (Xenopus laevis, UniProt Q7T1D0 1-362); experiment: as above; settings: protein: recombinant; tags: N-terminal 6xHis-lipoyl-TEV tag, cleaved; chain copies: 4; label: 5'-Alexa488
[7] = molecular target: T4, ΔNp63γ; experiment: as above; settings: protein: recombinant; tags: N-terminal 6xHis-lipoyl-TEV tag, cleaved; chain copies: 4; label: 5'-Alexa488

Sequence of Xlp53 (Q7T1D0 entry or part of it): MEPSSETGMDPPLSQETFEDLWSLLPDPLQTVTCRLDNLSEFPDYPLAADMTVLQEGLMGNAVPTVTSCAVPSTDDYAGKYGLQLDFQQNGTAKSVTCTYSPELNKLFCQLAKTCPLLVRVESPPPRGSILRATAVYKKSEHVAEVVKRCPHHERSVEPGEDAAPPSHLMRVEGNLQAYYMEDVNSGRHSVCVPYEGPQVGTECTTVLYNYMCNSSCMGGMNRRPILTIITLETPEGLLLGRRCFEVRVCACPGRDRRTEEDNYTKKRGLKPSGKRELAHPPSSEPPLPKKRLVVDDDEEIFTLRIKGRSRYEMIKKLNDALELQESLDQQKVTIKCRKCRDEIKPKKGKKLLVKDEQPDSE

| Binder | Kd [1] [nM] | Kd [2] [nM] | Kd [3] | Kd [4] | Kd [5] | Kd [6] | Kd [7] |
| --- | --- | --- | --- | --- | --- | --- | --- |
| B1 | 24 | 61.7 | – | – | – | – | – |
| B2 | – | – | -7.26 ± 0.02 log10(M) | -7.13 ± 0.04 log10(M) | -7.12 ± 0.01 log10(M) | -7.32 ± 0.02 log10(M) | -7.17 ± 0.02 log10(M) |
